The values below come from paper PMC11363321.

The subject of the series is Deoxymab-3 (DX3), humanized 3E10 antinuclear IgG1 (humanized (3E10 CDRs from MRL/lpr mouse on human IgG1 framework)). In words: SPR. The note with it: 1:1 kinetic fit, SPR Biacore T200, CM5 chip with neutravidin, biotinylated ssDNA (0.025 uM) immobilized, DX3 in PBS pH 7.4, contact 120 s, dissociation 400 s, temperature not ….

For the substance “30-mer single-stranded DNA oligonucleotide”, the Kd (as a rule, the concentration at which binding is half-saturated) by setting is: (experiment 1, DX3 titrated from 500 nM) 0.113 µM; (experiment 2 (replicate)) 0.112 µM.
